# Measurements published in WO2013157102A1 (dated 2013).
# Molecular target: T1, mucin subtype 5AC expressed on BxPC3 cells (human, UniProt P98088 28-5654)
# T1 construct: whole, on cells; also called mucin 5AC; MUC5AC
# Assay: flow cytometry on BxPC3 cells expressing mucin subtype 5AC, 20 ug/mL antibody, Alexa Fluor 488 anti-human IgG
row,Binder,binding result
1,"humanized antibody 2 (antibody, V domains shown, Detected with anti-human IgG; also called VH-4 combined with VL-5; mucin subtype 5AC-specific humanized antibody) VH: EVQLLESGGGLVQPGGSLRLSCAASGFTFSNYGMSWVRQAPGKGLEWVSTISNSGRYTYFPDSVKGRFTISRDNSKNTLYLQMNSLRAEDTAVYYCAKHLDYANYDAMDYWGQGTLVTVSS VL: DIVMTQTPLSSPVTLGQPASISCRASKSVTTSDFSYMHWLQQRPGQPPRLLIYLASNLESGVPDRFSGSGAGTDFTLKISRVEAEDVGVYYCQHSREFPWTFGQGTKVEIK",binds
2,"humanized antibody 4 (antibody, V domains shown, also called VH-4 combined with VL-3; mucin subtype 5AC-specific humanized antibody) VH: EVQLLESGGGLVQPGGSLRLSCAASGFTFSNYGMSWVRQAPGKGLEWVSTISNSGRYTYFPDSVKGRFTISRDNSKNTLYLQMNSLRAEDTAVYYCAKHLDYANYDAMDYWGQGTLVTVSS VL: DIQMTQSPSSLAVSLGDRVTITCRASKSVTTSDFSYMHWYQQKPGLAPKLLIYLASNLESGVPSRFSGSGSGTDFTFTISSLQPEDIATYYCQHSREFPWTFGQGTKVEVK",binds
3,"humanized antibody 9 (antibody, V domains shown, Detected with anti-human IgG; also called VH-3 combined with VL-5; mucin subtype 5AC-specific humanized antibody) VH: QVQLQESGPGLVRPSQSLKLTCTVSGSTFSNYGMSWVRQTPEKRLEWIGTISNSGRYTYFPDSVKGRVTMLVDTSKNQFSLQMSSVTAADTAVYYCARHLDYANYDAMDYWGQGSLVTVSS VL: DIVMTQTPLSSPVTLGQPASISCRASKSVTTSDFSYMHWLQQRPGQPPRLLIYLASNLESGVPDRFSGSGAGTDFTLKISRVEAEDVGVYYCQHSREFPWTFGQGTKVEIK",binds
4,"humanized antibody 6 (antibody, V domains shown, Detected with anti-human IgG; also called VH-5 combined with VL-5; mucin subtype 5AC-specific humanized antibody) VH: EVQLVESGGGLVKPGGSLRLSCAASGFTFSNYGMSWVRQAPGKGLEWVSTISNSGRYTYFPDSVKGRFTISRDNAKNSLYLQMNSLRAEDTAVYYCARHLDYANYDAMDYWGQGTLVTVSS VL: DIVMTQTPLSSPVTLGQPASISCRASKSVTTSDFSYMHWLQQRPGQPPRLLIYLASNLESGVPDRFSGSGAGTDFTLKISRVEAEDVGVYYCQHSREFPWTFGQGTKVEIK",binds
5,"humanized antibody 10 (antibody, V domains shown, Detected with anti-human IgG; also called VH-4 combined with VL-7; mucin subtype 5AC-specific humanized antibody) VH: EVQLLESGGGLVQPGGSLRLSCAASGFTFSNYGMSWVRQAPGKGLEWVSTISNSGRYTYFPDSVKGRFTISRDNSKNTLYLQMNSLRAEDTAVYYCAKHLDYANYDAMDYWGQGTLVTVSS VL: DIVMTQTPLSLSVTPGQPASISCRASKSVTTSDFSYMHWYLQKPGQPPQLLIYLASNLESGVPDRFSGSGSGTDFTLKISRVEAEDVGVYYCQHSREFPWTFGQGTKVEIK",binds
6,"humanized antibody 7 (antibody, V domains shown, Detected with anti-human IgG; also called VH-6 combined with VL-5; mucin subtype 5AC-specific humanized antibody) VH: EVQLVESGGGVVRPGGSLRLSCAASGFTFDNYGMSWVRQAPGKGLEWVSTISNSGRYTYFPDSVKGRFTISRDNAKNSLYLQMNSLRAEDTALYHCARHLDYANYDAMDYWGQGTLVTVSS VL: DIVMTQTPLSSPVTLGQPASISCRASKSVTTSDFSYMHWLQQRPGQPPRLLIYLASNLESGVPDRFSGSGAGTDFTLKISRVEAEDVGVYYCQHSREFPWTFGQGTKVEIK",binds
7,"humanized antibody 5 (antibody, V domains shown, Detected with anti-human IgG; also called VH-4 combined with VL-4; mucin subtype 5AC-specific humanized antibody) VH: EVQLLESGGGLVQPGGSLRLSCAASGFTFSNYGMSWVRQAPGKGLEWVSTISNSGRYTYFPDSVKGRFTISRDNSKNTLYLQMNSLRAEDTAVYYCAKHLDYANYDAMDYWGQGTLVTVSS VL: DIQMTQSPSSLAVSLGDRVTITCRASKSVTTSDFSYMHWYQQTPGKAPKLLIYLASNLESGVPSRFSGSGSGTDYTFTISSLQPEDIATYYCQHSREFPWTFGQGTKLQIT",binds
8,"humanized antibody 3 (antibody, V domains shown, Detected with anti-human IgG; also called VH-4 combined with VL-2; mucin subtype 5AC-specific humanized antibody) VH: EVQLLESGGGLVQPGGSLRLSCAASGFTFSNYGMSWVRQAPGKGLEWVSTISNSGRYTYFPDSVKGRFTISRDNSKNTLYLQMNSLRAEDTAVYYCAKHLDYANYDAMDYWGQGTLVTVSS VL: DIQMTQSPSTLAVSLGDRVTITCRASKSVTTSDFSYMHWYQQKPGKAPKLLMYLASNLESGVPSRFIGSGSGTEFTLTISSLQPDDFATYYCQHSREFPWTFGQGTKVEVK",binds
9,"humanized antibody 1 (antibody, V domains shown, Expressed transiently in HEK293 cells and detected with anti-human IgG; also called VH-1 combined with VL-1; mucin subtype 5AC-specific humanized antibody) VH: QVQLVESGGGVVQPGRSLRLSCSSSGFIFSNYGMSWVRQAPEKRLEWVATISNSGRYTYFPDSVKGRFTISRDNSKNTLFLQMDSLRPEDTGVYFCARHLDYANYDAMDYWGQGTPVTVSS VL: DIVMTQSPNSLAVSLGERATINCRASKSVTTSDFSYMHWYQQKPGQPPKLLIYLASNLESGVPDRFSGSGSGTDFTLTISSLQAEDVAVYYCQHSREFPWTFGQGTKLEIK",binds

# Molecular target: T1, mucin subtype 5AC expressed on BxPC3 …
# Assay: flow cytometry on BxPC3 cells expressing mucin subtype 5AC, 20 ug/mL antibody, Alexa Fluor 488 anti-mouse IgG; mouse antibody is the positive reference
row,Binder,binding result
1,"mucin subtype 5AC-specific mouse antibody (antibody, V domains shown, Detected with anti-mouse IgG) VH: EVKLVESGGVLVKSGGSLKLSCAVSGFTFSNYGMSWVRQTPEKRLEWVATISNSGRYTYFPDSVKGRFAISRDNAKNNLYLQMSSLRSADTALYYCTRHLDYANYDAMDYWGQGTSVTVSS VL: DIVLTQSPASLAVSLGQRATISCRASKSVTTSDFSYMHWYQQKPGQPPKLLLYLASNLESGVPDRFSGSGSGTDFTLNIHPVEEEDAATYYCQHSREFPWTFGGGTKLEIK",binds
